Laboratory results taken from patent US6512097.

Biological target: T1, c-erbB-2 ECD with a Ser-Gly-His6 C-terminal fusion (UniProt P04626 23-652)
T1 construct: extracellular domain; Expressed from CHO cells, IMAC purified; coupled to a CM5 chip, coated on plates, or biotinylated with NHS-LC-biotin; also called c-erbB-2 extracellular domain; biotinylated c-erbB-2 ECD
Assay: SPR BIAcore
Protocol: All assays were performed in triplicate. Briefly, […] of radioiodinated sFv was added to 5×10^6 SK-OV cells in the presence of increasing concentrations of unlabeled sFv from the same preparation. After a 30 minute incubation at 20° C., the samples were washed with PBS at 4° C. and centrifuged at 500 g. The amount of labeled sFv bound to the cells was determined by counting the pellets in a gamma counter and the K_a, and K_d were calculated using the EBDA program (V 2.0, G. A. McPherson, 1983). The K_d of all the other isolated sFv were determined using surface plasmon resonance in a BIAcore (Pharmacia). In a BIAcore flow cell, approximately 1400 resonance units (RU) of c-erbB-2 ECD (25 μg/ml in 10 mM sodium acetate, pH 4.5) was coupled to a CM5 sensor chip (Johnsson et al. (1991), supra). Association and dissociation-rates were measured under continuous flow of […] using a concentration range from 50 to 800 nM. Rate constant $kon$ was determined from a plot of (1(dR/dt))/t vs concentration (Karlsson et al. (1991), supra). Rate constant $Hoff$ was determined from the dissociation part of the sensorgram at the highest concentration of sFv analyzed.
Mutants obtained by combining mutations of C6MH3-B1 or C6MH3-B47 with mutations from D library clones (D1, D2, D3, D5, D6). Rate constants $kon$ and $koff$ were measured by SPR in a BIAcore, and the K_d calculated.

| Binder | Kd [nM] | Kd (C6.5)/Kd (mut) | Kd (parent)/Kd (mut) | koff [s⁻¹] | kon [M⁻¹ s⁻¹] |
| --- | --- | --- | --- | --- | --- |
| C6-9L1 (scFv, C6L1 with the VL CDR3 of C6ML3-9) scFv: QVQLLQSGAELKKPGESLKISCKGSGYSFTSYWIAWVRQMPGKGLEYMGLIYPGDSDTKYSPSFQGQVTISVDKSVSTAYLQWSSLKPSDSAVYFCARHDVGYCSSSNCAKWPEYFQHWGQGTLVTVSSGGGGSGGGGSGGGGSQSVLTQPPSVSGAPGQWVTISCSGSSSNIGNNYVSWYQQLPGTAPKLLIYDNNKRPSGVPDRFSGSQSGTSASLAISGLRSEDEADYYCASWDYTLSGWVFGGGTKLTVLG | 0.33 | 49 | 3 | 0.0003 | 920000 |
| C6-12L1 (scFv, C6L1 with the VL CDR3 of C6ML3-12) scFv: QVQLLQSGAELKKPGESLKISCKGSGYSFTSYWIAWVRQMPGKGLEYMGLIYPGDSDTKYSPSFQGQVTISVDKSVSTAYLQWSSLKPSDSAVYFCARHDVGYCSSSNCAKWPEYFQHWGQGTLVTVSSGGGGSGGGGSGGGGSQSVLTQPPSVSGAPGQWVTISCSGSSSNIGNNYVSWYQQLPGTAPKLLIYDNNKRPSGVPDRFSGSQSGTSASLAISGLRSEDEADYYCAAWDYSRSGWVFGGGTKLTVLG | 0.19 | 84 | 8.4 | 0.00013 | 670000 |
| C6-B1D2 (scFv, Combined B1 and D2 mutations on C6ML3-9) scFv: QVQLLQSGAELKKPGESLKISCKGSGYSFTSYWIAWVRQMPGKGLEYMGLIYPGDSDTKYSPSFQGQVTISVDKSVSTAYLQWSSLKPSDSAVYFCARHDVGYCTDRTCAKWPEWLGVWGQGTLVTVSSGGGGSGGGGSGGGGSQSVLTQPPSVSAAPGQKVTISCSGSSSNIGNNYVSWYQQLPGTAPKLLIYGHTNRPAGVPDRFSGSKSGTSASLAISGFRSEDEADYYCASWDYTLSGWVFGGGTKLTVLG | 0.015 | 1070 | 8 | 1e-05 | 690000 |
| C6-B1D1 (scFv, Combined B and D library mutations on C6ML3-9) scFv: QVQLLQSGAELKKPGESLKISCKGSGYSFTSYWIAWVRQMPGKGLEYMGLIYPGDSDTKYSPSFQGQVTISVDKSVSTAYLQWSSLKPSDSAVYFCARHDVGYCTDRTCAKWPEWLHVWGQGTLVTVSSGGGGSGGGGSGGGGSQSVLTQPPSVSAAPGQKVTISCSGSSSNIGNNYVSWYQQLPGTAPKLLIYGHTNRPAGVPDRFSGSKSGTSASLAISGFRSEDEADYYCASWDYTLSGWVFGGGTKLTVLG | 0.032 | 500 | 3.8 | 1.5e-05 | 470000 |
| C6-B1D3 (scFv, Combined B1 and D3 mutations on C6ML3-9) scFv: QVQLLQSGAELKKPGESLKISCKGSGYSFTSYWIAWVRQMPGKGLEYMGLIYPGDSDTKYSPSFQGQVTISVDKSVSTAYLQWSSLKPSDSAVYFCARHDVGYCTDRTCAKWPEWLDNWGQGTLVTVSSGGGGSGGGGSGGGGSQSVLTQPPSVSAAPGQKVTISCSGSSSNIGNNYVSWYQQLPGTAPKLLIYGHTNRPAGVPDRFSGSKSGTSASLAISGFRSEDEADYYCASWDYTLSGWVFGGGTKLTVLG | 0.013 | 1230 | 9.2 | 8e-06 | 640000 |
| C6-B1D5 (scFv, Combined B1 and D5 mutations on C6ML3-9) scFv: QVQLLQSGAELKKPGESLKISCKGSGYSFTSYWIAWVRQMPGKGLEYMGLIYPGDSDTKYSPSFQGQVTISVDKSVSTAYLQWSSLKPSDSAVYFCARHDVGYCTDRTCAKWPEWMQMWGQGTLVTVSSGGGGSGGGGSGGGGSQSVLTQPPSVSAAPGQKVTISCSGSSSNIGNNYVSWYQQLPGTAPKLLIYGHTNRPAGVPDRFSGSKSGTSASLAISGFRSEDEADYYCASWDYTLSGWVFGGGTKLTVLG | 0.035 | 457 | 3.4 | 1.8e-05 | 510000 |
